Source: paper PMC4698195 (Carbohydrate research, 2015)

Assays:
[1] = target: UDP-N-acetylglucosamine (UDP-GlcNAc) 2-epimerase (NmSacA) (Neisseria meningitidis, UniProt A0A0U1RGY0); assay type: biochemical
[2] = system: O=C(CO)N[C@@H]1[C@@H](OP(=O)(O)OP(=O)(O)OC[C@H]2O[C@@H](n3ccc(=O)[nH]c3=O)[C@H](O)[C@@H]2O)O[C@H](CO)[C@@H](O)[C@@H]1O; assay: purified protein
[3] = system: CC(=O)N[C@H]1[C@@H](OP(=O)(O)OP(=O)(O)OC[C@H]2O[C@@H](n3ccc(=O)[nH]c3=O)[C@H](O)[C@@H]2O)O[C@H](CO)[C@@H](O)[C@@H]1O; assay: purified protein
[4] = system: CC(=O)N[C@@H]1[C@@H](OP(=O)(O)OP(=O)(O)OC[C@H]2O[C@@H](N3CCC(=O)NC3=O)[C@H](O)[C@@H]2O)O[C@H](CO)[C@@H](O)[C@@H]1O; assay: purified protein
[5] = system: CCC(=O)N[C@@H]1[C@@H](OP(=O)(O)OP(=O)(O)OC[C@H]2O[C@@H](n3ccc(=O)[nH]c3=O)[C@H](O)[C@@H]2O)O[C@H](CO)[C@@H](O)[C@@H]1O; assay: purified protein
[6] = system: CC(=O)N[C@@H]1[C@@H](OP(=O)(O)OP(=O)(O)OC[C@H]2O[C@@H](n3ccc(=O)[nH]c3=O)[C@H](O)[C@@H]2O)O[C@H](CO)[C@@H](O)[C@@H]1O; assay: purified protein

UDP-N-acetylglucosamine (UDP-GlcNAc) 2-epimerase (NmSacA), sequence (A0A0U1RGY0 whole entry): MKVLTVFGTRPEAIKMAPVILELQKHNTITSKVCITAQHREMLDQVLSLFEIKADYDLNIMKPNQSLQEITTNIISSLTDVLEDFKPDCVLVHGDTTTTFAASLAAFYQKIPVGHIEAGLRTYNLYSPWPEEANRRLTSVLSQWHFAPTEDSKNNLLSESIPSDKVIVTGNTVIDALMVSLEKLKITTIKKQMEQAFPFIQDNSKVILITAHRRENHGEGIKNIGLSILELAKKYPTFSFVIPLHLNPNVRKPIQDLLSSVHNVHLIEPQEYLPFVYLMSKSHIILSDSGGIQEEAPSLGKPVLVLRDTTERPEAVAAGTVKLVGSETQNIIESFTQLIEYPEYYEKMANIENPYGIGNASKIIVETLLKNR

| Compound | Ki [1] [mM] | Km [2] [mM] | kcat [2] [s⁻¹] | kcat/Km [2] [M⁻¹ s⁻¹] | Km [3] [mM] | kcat [3] [s⁻¹] | kcat/Km [3] [M⁻¹ s⁻¹] | Km [4] [mM] | kcat [4] [s⁻¹] | kcat/Km [4] [M⁻¹ s⁻¹] | Km [5] [mM] | kcat [5] [s⁻¹] | kcat/Km [5] [M⁻¹ s⁻¹] | Km [6] [mM] | kcat [6] [s⁻¹] | kcat/Km [6] [M⁻¹ s⁻¹] |
| --- | --- | --- | --- | --- | --- | --- | --- | --- | --- | --- | --- | --- | --- | --- | --- | --- |
| CC(=O)NC1=CO[C@H](CO)[C@@H](O)[C@@H]1O [D, 2-acetamidoglucal] | 14 |  |  |  |  |  |  |  |  |  |  |  |  |  |  |  |
| O=c1ccn([C@@H]2O[C@H](COP(=O)(O)OP(=O)(O)O)[C@@H](O)[C@H]2O)c(=O)[nH]1 [UDP] | 0.8 |  |  |  |  |  |  |  |  |  |  |  |  |  |  |  |
| UDP-N-acetylglucosamine (UDP-GlcNAc) 2-epimerase (NmSacA) (Neisseria meningitidis Z2491) |  | 20 ± 1.9 | 4.2 ± 0.2 | 210 | 3.6 ± 0.5 | 31 ± 2 | 8600 | 63 ± 7.0 | 6.7 ± 0.5 | 110 | 51 ± 5.0 | 7.8 ± 0.3 | 150 | 5.2 ± 1.1 | 52 ± 5 | 10000 |
